Laboratory results from the supplement of paper PMC10567573.

B1: RIPK4 (parent)
chain: VSVNAQTLDGRTPLHLAAQRGHYR
B2: SLC25A39 (parent)
chain: LTSDLYAPMVAGALARLGTVTVIS

Variants of: B1
Assay: protein stability index of a GFP-peptide fusion (GPS, HEK-293T) (PSI 1-6); higher = more stable
Conditions: c terminus: a fixed tail appended
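Also: lentivirally expressed fusions sorted by FACS into six bins by GFP to DsRed ratio, PSI derived from sequencing read proportions per bin multiplied by bin number.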

Protein stability index, by site and new letter:
V1: T 3.78; E 3.97; L 3.98; C 2.54; I 3.54; Y 3.59; K 3.74; M 4.21; W 3.5; S 3.62; P 3.85; F 3.39; Q 3.99; H 3.79; A 3.94; G 3.76; R 4.06; D 4.66; N 4.12
S2: D 4.08; C 2.93; A 3.24; E 3.27; F 2.57

Variants of: B2
Assay: as above
Conditions: c terminus: a fixed tail appended

Protein stability index: each site, then its substitutions
A13: D 1.74; P 1.16; K 3.56; H 2.47; C 2.73; M 3.17; Q 2.61; N 2.09; T 1.75; V 2.79; S 1.38; R 1.79
P8: I 1.62; L 2.02; N 1.7; S 3.97; M 3.46; A 1.5; D 3.54; T 3.06; W 2.68; E 3.86; C 2.52
M9: R 1.36; L 3.65; T 2.35; N 1.01; S 1.75; G 1.6; A 2.21; Q 2.57; K 1.52; C 1.65; I 2.76; Y 3.86; E 2.54; H 1.77; D 1.78; P 1.5
T2: Q 2.49; H 2.88; A 3.92; K 1.57; S 2.68; Y 4.43; W 1.61; N 2.52; E 2.15; M 3.56; G 3.56; C 4.26; D 2.1
R16: D 2.58; F 4.13; M 3.22; A 2.1; P 1.98; Q 3.11; L 2.76; E 1.76; I 2.97; Y 2.35; N 1.5; S 2.41; W 2.85
A15: R 2.1; K 3.12; F 2.6; G 2.69; N 1.87; D 1.93; T 3.55; S 3.49; L 1.45; E 1.39; P 1.97; M 4.42; Q 3.66
T19: D 1.76; V 2.87; Q 1.8; K 2.21; H 1.94; G 1.91
A11: D 1.65; T 2.81; Q 1.65; H 2.69; K 2.39; Y 4.45; F 3.02; P 3.19; M 2.95; N 2.3; L 2.5
S24: C 3.08; N 1.91; Q 1.45; H 3.6; E 2.61; P 2.21; R 2.26; I 1.56; D 3.34; W 3.06; K 1.61; T 4.15; G 3
L5: S 2.12; H 1.34; P 2.31; R 2.09; Y 3.05; C 3.99; K 3.21; T 1.48; I 1; Q 1.65; A 2.14; N 1.89; D 1.89; G 2.8; M 2.95; E 1.69
V22: E 2.08; F 2.47; T 2.04; A 2.58; D 1.49; Y 1.6; R 2.82; P 1.61; S 2.31; C 3.43; K 1.74; L 3.04; N 1.11
V20: N 2.54; W 1.77; K 2.05; G 1.99; Y 3.19; I 3.37; T 1.02; D 2.73; H 3.15; R 1.76; F 2.09; E 2.43; P 1.45; S 2.26
D4: T 2.84; Y 5.3; S 2.07; R 3.25; V 3.22; C 4.74; W 3.9; Q 2.88; P 2.89
A7: R 3.29; S 2.38; K 1.61; I 4.33; L 3.74; V 1.96; N 1.97; H 2.38; P 1.87; Q 2.86; C 2.42; D 1.17; T 1.62
I23: G 2.18; S 1.95; E 2.54; L 2.75; R 1.87; P 1.8; D 2.3; Q 2.56; Y 2.31; N 1.98; K 2.04
L14: Y 3.67; F 3.32; P 2.24; K 1; G 2.76; R 1.72; V 2.83; H 1.12; N 1.69; W 5.23; A 1.79; D 1.83; Q 1.53; S 1.69; E 1.91; C 3.43; T 1.58
S3: K 1.13; L 3.13; N 1.56; G 3.59; R 2.83; T 1.38; P 1.35; D 2.96; V 3.21; F 3.67; I 2.51; Y 2.41; M 2.73; A 2.75; H 2.4; Q 1.86
G18: D 2.53; P 2.57; H 4.48; T 3.39; W 3.57; K 2.53; A 2.61; R 2.66
V10: M 4.25; Y 2.63; N 1.96; P 1.85; W 2.29; H 2.45; G 2.72; T 3.25; Q 1.96; F 2.85; D 1.9; C 3.02; K 2.15; A 3.92; R 1.49; S 2.6; E 1.21
L1: T 1.75; G 2.72; A 3.53; N 2.77; Q 1.84; D 1.76; M 2.2; S 1.41; P 1.62; I 1.96; K 2.83; C 2.18; E 2.24; H 2.01; V 1.88
L17: D 2.47; I 3.23; A 1.92; Y 2.12; F 2.95; P 1.69; T 1.52; V 2.22; W 4.43; S 2.51; N 1.96; R 1.1; H 2.7; E 2.71; K 1.75; G 3.15; C 1.56
Y6: S 1.34; D 1.55; N 1.34; E 2; V 2.13; A 2.37; W 3.76; R 1.47; G 1.13; M 2.09; C 2.31; H 2.34; P 1.98; F 3.72; T 1.82; Q 2.01
T21: E 2.09; N 2.79; R 2.12; Q 2.95; H 2.26; M 2.7; W 3.97; V 2.03; F 3.5; D 3.1
G12: V 3.9; P 1.23; K 3.64; R 3.52; L 3.83; Q 4.46; H 2.64; S 1.53; Y 2.21; I 3.04
